# Measurements published in the domain aggregation screens of Martell et al. (2025).
# Test: soluble fraction after stress (log2 fold change); higher = more stays soluble; pooled small domains, quantitative proteomics
# Conditions: stress: pH 4
# Method in brief: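 Custom libraries of small protein domains were pooled and exposed to pH 4. High-throughput quantitative proteomics then measured the log2 fold change in the amount of each domain still soluble, with higher values meaning more stayed soluble. This soluble-fraction fold change stands for aggregation propensity.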
row,Sequence,soluble fraction (log2)
1,HMIVNTTRAPYLLGETEQDAMRLARQAGLVPEIVRQSSAEPAGTVILQSHDFDYRMRRGSVILITVSTGPL,0.22
2,HMIVPPAIPFRALGIFGPRDRPIVTFEDGPRLINAREGDVLDGRFILRRVGRESVDFAFVGLPPEITRRIP,-0.608
3,HMIVSEYIIIGGDKKEYGPVSMGEVGEWVQGGRANGDSKIKKVGTEEWGRLRDFPEFSAYLS,-0.309
4,HMIVVMARETSTDDLEAIRERIESRGMVAQINLGVERTVIGVMGSIPPDFKDEMELMNGVVEVVMISK,-1.64
5,HMIVVMKTSASERDLQEVIARIEQFGFATRSIVGSERATVSVLGAPLPDSLQEALERMPGVEEVVRITK,-0.0559
6,HMIYAEDFVGRQGTANTILRPSGRIEIEGEVYDAYTRGEYVEAGERVVVISQEGSTLKVRVV,-1.36
7,HMIYQEGMQVKYQGKEYVISEIQDYKTYKTIKLDDNEGYLNGFITGSEILSFRNESELDLEI,-0.785
8,HMIYSKSDLELFGIKKIDVMEENILMLILSEYELDQTPKNILIDEAVRLSKKFGADNAYKFVNATLDTLL,-1.51
9,HMKAETILAIPENQPERLFPNNEDEARKIYRDLAREWHTDRNKSPKAQDVFSHLSKLYDIVIDRIKNKTWT,-0.0463
10,HMKAGRNTLARQMAILEVLQKDGRALVDDLAARFETTPQTIRKDLSALAEVNQISRFHGGAALVG,-0.279
11,HMKAKTYTVQYIDEGKIIKEEELEEGSIINAPEVTKEGHTFIGWYEGEEKYDVYEPITRNLILESKNEIN,-0.989
12,HMKALEGMRTVFTLADLATEPVTVEITVLEAFKYTTTLEIVQRPVLREWMTNPSMLIRVYHDASTAE,-0.138
13,HMKAMIIVMKPGADMATISKVLKTIETNGFKPHLSKGEETTVIGVIGDERKLNPDIFSTLEGVERIVPVA,0.279
14,HMKASTRELLDFVLSQRGVSTASVAKALGISVQNASTRLKKLSNEGLIIRSEASSLTGGIEFLYS,0.0289
15,HMKDASEFLGAKGKTITPLRPTGAAVINGEKVDVLAEGEFIPKNAEIVVIKVEGSKIIVRNANN,-0.0474
16,HMKDDLTWSEGLMPNVVGMGLRDAMFMLENSGLRVNYSGRGKVTRQSPQPGVRIKRGATVAIELRL,0.0273
17,HMKDEHYLYIKARVDNGDYPHLSELKSAEEIELVMPKLLQDGIVEFNKETGEYTIGEDVKAEIERL,-1.02
18,HMKDESYALGTRLLSHALGKTKLEDLAQEKIDEVVQQSGNKTLEQLLTNIGLGNALSIGIARQLT,≥ 0.43
19,HMKDGAKYFQLFGLLKNEINRGIYQSGQKIPGENELAEKYGMSRQTVRQALSLLEQESLIERRQGSGTYVR,0.185
20,HMKDGMRVYITYHDSEEEPEKPIGDGTTKGWHTNSTASVVWISQKVAESADLGIWGDPIRIKGEA,-0.217
21,HMKDIIVDPQGQYNHPGVPTRIPSSDITMKGVGYPVLGIADNGQKQMMQPGQDYKFPGAKYVDEYPQM,0.0501
22,HMKDIIVLGAIQAGIKKFDKIQKMTQIEPEELNSILEQLENRGFIQVAEKSGLLGKKIEILVTEKGSNEVD,-0.484
23,HMKDITAVISKKKGRDYYYIIVSYHLSNGKRVQKWIKTEFSVNGNNKRKLEQKRIEILQEWQNKLV,-0.0977

row,Sequence,soluble fraction (log2)
1,HMKDITMPNVYGLTLEMAEQTLKQSELSIFKAMKINSDTVEEGKVIYTDPKANSIVSGDQEITIYVSDGP,0.22
2,HMKDKSEKTKKLIFEAAFKIIREEGFSELSANKIAQVASVSKGVIFHHFSQMDDLYLFMLDTL,0.192
3,HMKDLTAIKGVGEFFAKKLSQAGYQSITNLTDVNAKRLQADTGIPLPIAARIIKEAQSLIAET,-0.00834
4,HMKDMWNRIRRARLSAGLSQAALAKETGVRRSAVTQWEKEGGTSPSVANLARIAVVTQVHFEWLATGRGPG,-0.216
5,HMKDNIRSILEDIPNIGPGRRRALLKHFGSIEAIRRASLEDLIKVDGMNRNAALSIMEYFGM,-0.24
6,HMKDPSLEHIDALAGKPFQAFPGQDHRAHITAHLNFMSTNMVRNNPSIMAAIQKNILEHISLMAQEQIQL,-0.683
7,HMKEETYHYTVRYVTDGGDILASYEGKATKDSVFFPEVKTFDGYTAVRGEEPMFHLVSDHAVFQIVYQKNG,0.204
8,HMKEFEINSQWKPSLEVYDILSVKGGISRNFIEDSIPEFVLYWRGRGDKSNTWDSKFVQHVKRQWNFYSGL,-2.41
9,HMKEGGREEMSEIVERYGDERALMANITSVQNLMNNMKWTLDQALDALGIKGKERTLITQQLQ,-0.145
10,HMKEIATKSELTYFIQRLLDLLEETNFFNPEERKKAMINHIEAIFRRNNLTLQELNMLHGIITSITR,-1.38
11,HMKEIGGGPASKFIYYLIKTKHPIEQGDLIGITHLPRRTVQSAIEDLKNQGFIIERNSLDDSRRKVYYPVK,0.22
12,HMKEIKRLVELSPGRYFIEGATNIRVFGINGSLLLDTKGETVDLSDLAKGVYLLKTDGVTYKVL,-0.216
13,HMKEIYIDRGKEALEKELRKRKIPFQEFLSKENTNLLFDTLKIPSHDLEELYLEIGNGKHAASTVVNTVY,-0.0339
14,HMKEKQLMTLDDDLYAFLLKHPGIIQKDIYNHFPYDIKGVIADTLYAWDKTGKIKRTKSGNSYIIYT,-0.141
15,HMKELAADFSRRIINARTSKGWSQADLGQRMAETINVIKSAESGKPPTDAVVKKFETVLGVILM,0.22
16,HMKELLDRIFLHETMRRVSQDATITFSKKVYEVPQKFIGRQVTVQYDPEDLSRVYVKDLNFPEPVMVYPVQ,0.0825
17,HMKELTPEQLQHNWNNLRQFIDVNFSGDRLGGLNKMYDYFEERMMFAPASGKQHYHNAFAGGYVEHVMHV,0.0505
18,HMKEPGFAPPVRALAAAPITVLAQVAGTNPGEIRARLRAAGYPVASDQQSVQSLVGGDLKAQIGVLNRILA,-0.0568
19,HMKEQIKVPDLSNKTPEEAKKELNTLGLGARKGGEESSDTVEEGLITRQEPAAGEQVDKNTQILFYVSTGK,0.0545
20,HMKEQLLLGFKVRSLRGIDLGFVKFIEGSAFQSFLKTDLTIIPNVPNYVKKIDNVKKIILVDWESD,-1.54
21,HMKEQYTELDWDKVQVNDKVMIKDLNQQVTILSLPDKNNALYIQMGMIKTKVKKEKLAVYNPQLA,-0.103
22,HMKERVSWDERLERFAKHITENESLPYPSSKEYAWFEENKALYDAGELEPVRAQSFAFLLKIMRRMNL,0.0752
23,HMKETIIPELLQNELDKNSELNDKFNTFSPYKQREFIEYIITAKQEKTQISRLQKVILMILEGRGLNN,-0.491

row,Sequence,soluble fraction (log2)
1,HMKEVELENMIKAKGFKDAAVLVDERSVTVIVESERLAAGDSASIKELVSRGTGVDPQNVVII,-0.295
2,HMKEYPEVITTSRLNVRTGPGTGYQRLGTLDQNLRVLVLTRQQGWAQIRGMLNGETVIGWVNDYYLQAID,-0.259
3,HMKFINISIDKSGNLFINKKSIKFQDLKYNVVNLVDESKNLVVLNADENISHGYVISVLDVLRSIDGLKLA,-0.802
4,HMKFNEKQNEVRIAIMNFIIDNKRPFHMKQDGYDALEGITLSGRHEFQDILDVLHSRDGFSADEEGNINF,-1.69
5,HMKFPIITAKQDSDGKFYWAQTTDKGKTYTFILDGDGKKFPIGGTMPDVKINENGYWSVNGSSTGVLANDL,-0.295
6,HMKFSVEEQFKKSFPKNTYETFSETSLKGVYEVYNGKQVYYYLPVNDVLLLGSIVTKDGKNLTQESNSKK,-0.0849
7,HMKGIVFTEFLDLVEERFGLEMVDAIISQSKLESKGVYTSIGTYSFSELLQLLQNLKIQTGISIDNLLLI,-1.51
8,HMKGKIYFFEEGVDRVGGVERVISTLANEFSKKYKVNVISFYKTRKETFFKYNSDIDITYLSK,-0.264
9,HMKGLDRATNKALLLKHIIDNGSTGTRFSELRQVLPSLTRGSISSLLIELRSEGKIHSIGVTRNARWYPTE,-0.309
10,HMKGLKERLLYFIEYKGLPVQMFEKIVGLSNAAVSKMGDNTRRSTIDKISKSFPELDVNWLLTGQGEMLSY,0.296
11,HMKGPAFAKIDLTQLPAGLTSFLNTNAAGFKLDYAVAITKDSVIIEYHVGVTIGTAKKEFHLDPNFQLLP,-0.1
12,HMKGPLKDLGPDPVTGKSILVKDGKFGTYVTDGETNATLRRGDIVELLTLERGMELLAEKRARATQ,-0.0516
13,HMKGTVKFFNESKGFGFITEEGTNKEHFVHVSGLVDEIRENDEVEFDLQDGRKGLNAVNVRV,0.0618
14,HMKGVENLSDIDIQKALNNARANLSKNKAKLEQAGDDEKKKASALAMIQKWETTKKAIEEEIEARKKKSLN,-0.088
15,HMKHAIKEKIRNEYVHGYLNEEGYRVMPTLDELIRKYEVPASSTYRASSKEGWKKQKEAFLEHLRGEIDA,-0.0601
16,HMKHFFIIAGGKIEDAFAIEVLKGFAEKTVIAADSGMEFLRRNEIVPQVIIGDFDSVSKETLEWFQKK,0.22
17,HMKHKGILTTWNDDRGFGFITPKEGKEPVFVHISAFARGQGRPVLNASLTYRLVRDDQQRPRAEAVRL,0.189
18,HMKHKHHIIPKHKGGTDHPDNLIELTVEQHAKAHWVEFMLDGREEDYWAWKGLEGVASKKDIIYALSKR,-0.313
19,HMKHSEAIELGKRMLSQALQDVSLVLKKIPEERLQAVAAELNLKTPDELFEKIGLGERLAALVARRLLP,0.0472
20,HMKHTQTDEGELLSTLRTLFPNSSSSSLRKMLTQGRILVNQEVVHRAKHALQAGDEIEVLARQ,0.0825
21,HMKHVDLDNNERYIYGIIGSTKIHVDEVVEKSGMETKHVMAILTNLELKEAIKGIPGGFYLR,-1.19
22,HMKHVENLSDEKTIQAIQENPYMQYLLGLSKFTEKPVFVPELFVLIRKRLDQDFFNMLTLILAEADG,-0.778
